{"source": "patent US20030044418A1", "about": "(TEXAS A AND M UNIVERSITY SYSTEM UNIVERSITY, published 2003)", "key": {"rSdrG(50-597) [1]": {"biological_target": "T1, rSdrG(50-597) (Staphylococcus epidermidis K28, UniProt Q9KI13 50-597)", "T1 construct": "Used biotin labeled in the Western ligand blots and in the ELISAs on protease-treated Fg; also called recombinant SdrG A-region; recombinant form of the N-terminal A-region of SdrG", "T1 sequence": "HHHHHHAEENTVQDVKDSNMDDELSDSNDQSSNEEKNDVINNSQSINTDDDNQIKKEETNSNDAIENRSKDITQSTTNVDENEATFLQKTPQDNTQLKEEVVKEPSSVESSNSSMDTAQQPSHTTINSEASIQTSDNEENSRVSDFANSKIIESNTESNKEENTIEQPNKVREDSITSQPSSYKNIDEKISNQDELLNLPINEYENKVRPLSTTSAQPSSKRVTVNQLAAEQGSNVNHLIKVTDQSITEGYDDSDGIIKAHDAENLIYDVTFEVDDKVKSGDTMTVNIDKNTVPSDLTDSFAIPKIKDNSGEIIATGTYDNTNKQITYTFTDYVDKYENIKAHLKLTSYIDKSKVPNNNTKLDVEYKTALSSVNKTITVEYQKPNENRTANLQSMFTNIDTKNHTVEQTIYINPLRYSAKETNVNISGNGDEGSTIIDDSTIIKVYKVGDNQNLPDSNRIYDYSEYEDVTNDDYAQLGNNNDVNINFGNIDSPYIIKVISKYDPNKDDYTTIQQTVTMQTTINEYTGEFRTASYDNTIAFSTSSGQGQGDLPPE", "test": "Western ligand blot of E. coli lysates, biotin labeled rSdrG(50-597) 0.5 µM"}, "rSdrG(50-597) [2]": {"biological_target": "T1, rSdrG(50-597)", "test": "inhibition ELISA, peptide varied, 50 nM rSdrG(50-597), Fg-coated wells"}, "rSdrG(50-597) [3]": {"biological_target": "T1, rSdrG(50-597)", "test": "fluorescence polarization, increasing rSdrG(50-597) with 10 nM fluorescein-labeled β1-25, three experiments"}, "rSdrG(50-597) [4]": {"biological_target": "T1, rSdrG(50-597)", "test": "inhibition ELISA, peptide varied, 50 nM rSdrG(50-597), Fg-coated wells; reference β1-25"}, "rSdrG(50-597) [5]": {"biological_target": "T1, rSdrG(50-597)", "test": "Western ligand blot"}, "rSdrG(50-597) [6]": {"biological_target": "T1, rSdrG(50-597)", "test": "Western ligand blot, biotin labeled rSdrG(50-597)"}}, "note": "No end group written: not given here."}
{"binder": "rβ(1-341) (ligand, range 1-341; Expressed in E. coli; whole cell lysate on the blot; also called recombinant truncate encompassing residues 1-341; not shown: N-terminal His-tag or GST fusion) QGVNDNEEGFFSARGHRPLDKKREEAPSLRPAPPPISGGGYRARPAKAAATQKKVERKAPDAGGCLHADPDLGVLCPTGCQLQEALLQQERPIRNSVDELNNNVEAVSQTSSSSFQYMYLLKDLWQKRQKQVKDNENVVNEYSSELEKHQLYIDETVNSNIPTNLRVLRSILENLRSKIQKLESDVSAQMEYCRTPCTVSCNIPVVSGKECEEIIRKGGETSEMYLIQPDSSVKPYRVYCDMNTENGGWTVIQNRQDGSVDFGRKWDPYKQGFGNVATNTDGKNYCGLPGEYWLGNDKISQLTRMGPTELLIEMEDWKGDKVKAHYGGFTVQNEANKYQIS", "values": [{"measurement": "binding result", "setting": "rSdrG(50-597) [1]", "result": "binds"}]}
{"binder": "rβ(1-220) (ligand, range 1-220; Expressed in E. coli; whole cell lysate on the blot; also called recombinant truncate encompassing residues 1-220; not shown: N-terminal His-tag or GST fusion) QGVNDNEEGFFSARGHRPLDKKREEAPSLRPAPPPISGGGYRARPAKAAATQKKVERKAPDAGGCLHADPDLGVLCPTGCQLQEALLQQERPIRNSVDELNNNVEAVSQTSSSSFQYMYLLKDLWQKRQKQVKDNENVVNEYSSELEKHQLYIDETVNSNIPTNLRVLRSILENLRSKIQKLESDVSAQMEYCRTPCTVSCNIPVVSGKECEEIIRKGGE", "values": [{"measurement": "binding result", "setting": "rSdrG(50-597) [1]", "result": "binds"}]}
{"binder": "rβ(1-195) (ligand, range 1-195; Expressed in E. coli; whole cell lysate on the blot; also called recombinant truncate encompassing residues 1-195; not shown: N-terminal His-tag or GST fusion) QGVNDNEEGFFSARGHRPLDKKREEAPSLRPAPPPISGGGYRARPAKAAATQKKVERKAPDAGGCLHADPDLGVLCPTGCQLQEALLQQERPIRNSVDELNNNVEAVSQTSSSSFQYMYLLKDLWQKRQKQVKDNENVVNEYSSELEKHQLYIDETVNSNIPTNLRVLRSILENLRSKIQKLESDVSAQMEYCRT", "values": [{"measurement": "binding result", "setting": "rSdrG(50-597) [1]", "result": "binds"}]}
{"binder": "rβ(1-95) (ligand, range 1-95; Expressed in E. coli; whole cell lysate on the blot; also called recombinant truncate encompassing residues 1-95; not shown: N-terminal His-tag or GST fusion) QGVNDNEEGFFSARGHRPLDKKREEAPSLRPAPPPISGGGYRARPAKAAATQKKVERKAPDAGGCLHADPDLGVLCPTGCQLQEALLQQERPIRN", "values": [{"measurement": "binding result", "setting": "rSdrG(50-597) [1]", "result": "binds"}]}
{"binder": "QGVNDNEEGFFSARGHRPLDKKREE (ends and bridges not checked, Synthetic peptide (Research Genetics); also called unlabeled β1-25; synthetic 25 amino acid peptide representing the N-terminus of the Fg Bβ chain)", "note": "[peptide β1-25]", "values": [{"measurement": "binding result", "setting": "rSdrG(50-597) [2]", "result": "binds"}]}
{"binder": "NEEGFFSARGHRPLDKKREE (Synthetic peptide (Research Genetics))", "note": "[peptide β6-25]", "values": [{"measurement": "binding result", "setting": "rSdrG(50-597) [2]", "result": "binds"}]}
{"binder": "NEEGFFSARGHRPLD (Synthetic peptide made in the inventors' laboratory)", "note": "[peptide β6-20]", "values": [{"measurement": "binding result", "setting": "rSdrG(50-597) [2]", "result": "binds"}]}
{"binder": "QGVNDNEEGFFSARGHRPLD (ends and bridges not checked, Synthetic peptide (Research Genetics))", "note": "[peptide β1-20]", "values": [{"measurement": "binding result", "setting": "rSdrG(50-597) [2]", "result": "binds"}]}
{"binder": "QGVNDNEEGFFSARGHRPLDKKREE (ends and bridges not checked; also: fluorescein label, position not given here, used at 10 nM in fluorescence polarization; also called fluorescein-labeled N-terminal Bβ chain peptide β1-25; labeled peptide)", "note": "[fluorescein-labeled β1-25 peptide]", "values": [{"measurement": "Kd", "setting": "rSdrG(50-597) [3]", "result": 140, "unit": "nM"}]}
{"binder": "QGVNDNEEGFFSAR (Bought from Bachem; also called FpB; FpB (1-14))", "note": "[fibrinopeptide B]", "values": [{"measurement": "fold less active than the synthetic peptide β1-25 as inhibitor", "setting": "rSdrG(50-597) [4]", "result": 10, "unit": "fold"}]}
{"binder": "native Bβ chain of fibrinogen (ligand, Chain of native Fg on a Western ligand blot; also called Fg Bβ chain) QGVNDNEEGFFSARGHRPLDKKREEAPSLRPAPPPISGGGYRARPAKAAATQKKVERKAPDAGGCLHADPDLGVLCPTGCQLQEALLQQERPIRNSVDELNNNVEAVSQTSSSSFQYMYLLKDLWQKRQKQVKDNENVVNEYSSELEKHQLYIDETVNSNIPTNLRVLRSILENLRSKIQKLESDVSAQMEYCRTPCTVSCNIPVVSGKECEEIIRKGGETSEMYLIQPDSSVKPYRVYCDMNTENGGWTVIQNRQDGSVDFGRKWDPYKQGFGNVATNTDGKNYCGLPGEYWLGNDKISQLTRMGPTELLIEMEDWKGDKVKAHYGGFTVQNEANKYQISVNKYRGTAGNALMDGASQLMGENRTMTIHNGMFFSTYDRDNDGWLTSDPRKQCSKEDGGGWWYNRCHAANPNGRYYWGGQYTWDMAKHGTDDGVVWMNWKGSWYSMRKMSMKIRPFFPQQ", "values": [{"measurement": "binding result", "setting": "rSdrG(50-597) [5]", "result": "binds"}]}
{"binder": "rβ(25-195) (ligand, range 25-195; Expressed in E. coli; whole cell lysate on the blot; The text says it lacks the N-terminal 25 residues although the name begins at 25; not shown: N-terminal His-tag or GST fusion) EAPSLRPAPPPISGGGYRARPAKAAATQKKVERKAPDAGGCLHADPDLGVLCPTGCQLQEALLQQERPIRNSVDELNNNVEAVSQTSSSSFQYMYLLKDLWQKRQKQVKDNENVVNEYSSELEKHQLYIDETVNSNIPTNLRVLRSILENLRSKIQKLESDVSAQMEYCRT", "values": [{"measurement": "binding result", "setting": "rSdrG(50-597) [6]", "result": "no binding (tested: 0.5 µM)"}]}
{"binder": "γ chain of Fg (ligand, Chain of native Fg on a Western ligand blot) YVATRDNCCILDERFGSYCPTTCGIADFLSTYQTKVDKDLQSLEDILHQVENKTSEVKQLIKAIQLTYNPDESSKPNMIDAATLKSRKMLEEIMKYEASILTHDSSIRYLQEIYNSNNQKIVNLKEKVAQLEAQCQEPCKDTVQIHDITGKDCQDIANKGAKQSGLYFIKPLKANQQFLVYCEIDGSGNGWTVFQKRLDGSVDFKKNWIQYKEGFGHLSPTGTTEFWLGNEKIHLISTQSAIPYALRVELEDWNGRTSTADYAMFKVGPEADKYRLTYAYFAGGDAGDAFDGFDFGDDPSDKFFTSHNGMQFSTWDNDNDKFEGNCAEQDGSGWWMNKCHAGHLNGVYYQGGTYSKASTPNGYDNGIIWATWKTRWYSMKKTTMKIIPFNRLTIGEGQQHHLGGAKQAGDV", "values": [{"measurement": "binding result", "setting": "rSdrG(50-597) [6]", "result": "no binding"}]}
{"binder": "rβ(25-95) (ligand, range 25-95; Expressed in E. coli; whole cell lysate on the blot; The text says it lacks the N-terminal 25 residues although the name begins at 25; not shown: N-terminal His-tag or GST fusion) EAPSLRPAPPPISGGGYRARPAKAAATQKKVERKAPDAGGCLHADPDLGVLCPTGCQLQEALLQQERPIRN", "values": [{"measurement": "binding result", "setting": "rSdrG(50-597) [6]", "result": "no binding (tested: 0.5 µM)"}]}
